{"source": "paper PMC11116815", "binders": {"B1": {"name": "CCL23_(25-99) (ligand)", "chain": "RFHATSADCCISYTPRSIPCSLLESYFETNSECSKPGVIFLTKKGRRFCANPSDKQVQVCMRMLKLDTRIKTRKN"}}, "target": "T1, chemokine (C-C motif) receptor (CCR)1 (human (endogenous in THP-1 and human monocytes)) (UniProt P32246)", "T1 sequence": "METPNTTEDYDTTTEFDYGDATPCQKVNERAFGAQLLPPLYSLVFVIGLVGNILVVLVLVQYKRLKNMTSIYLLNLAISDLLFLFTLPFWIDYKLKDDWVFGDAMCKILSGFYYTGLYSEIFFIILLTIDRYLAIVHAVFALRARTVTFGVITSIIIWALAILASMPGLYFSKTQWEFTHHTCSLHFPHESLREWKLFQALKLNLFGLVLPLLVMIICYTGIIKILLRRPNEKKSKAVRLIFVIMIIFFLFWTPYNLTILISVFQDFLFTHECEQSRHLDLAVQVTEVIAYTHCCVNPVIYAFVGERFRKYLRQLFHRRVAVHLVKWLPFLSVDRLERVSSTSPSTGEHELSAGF", "data": [{"binder": "B1", "values": [{"measurement": "EC50 of CCL23 for Gαi activation (TRUPATH BRET biosensor: Gαi1-Rluc8, Gβ3, Gγ9-GFP2) in HEK293T cells transfected with untagged CCR1 alone", "result": 0.3, "unit": "nM"}]}]}
